Legend:
[1] = Serum stability of [205/206Bi]Bi-DOTAGA-cKNGRE; assay type: in vitro ADME; conditions: mouse plasma (heading says serum); 50 µL tracer in saline + 50 µL mouse plasma, 90 min, radio-iTLC; read-out: RCP after 90 min incubation in serum
Experimental: Fifty μL of [^205/206Bi]Bi-DOTAGA-Bn-cKNGRE in physiological saline (Salsol, TEVA, Debrecen, Hungary) was added to the solution of fifty μL of mouse plasma. The RCP of the samples was determined by radio-iTLC at 0, 30, 60 and 90 min time points using the same method as described above. After 90 min the [^205/206Bi]Bi-DOTAGA-Bn-cKNGRE remained intact as the RCP of the sample taken from the mixture was above 95%, which meets the requirements for ^213Bi-labelled radiopharmaceuticals.

[2] = LogP measurement of [205/206Bi]Bi-DOTAGA-cKNGRE (n-octanol/water); assay type: physicochemical; conditions: shake-flask n-octanol/water, 205/206Bi as surrogates for 213Bi, 10 µL tracer in saline + 0.49 mL water + 0.5 mL n-octanol, shaken 5 min, centrifuged 6000 rpm 5 min, gamma counter
Experimental: For the determination of LogP value we used ^205/206Bi isotopes as surrogates which were produced by GE PETtrace cyclotron using the method described by Lagunas-Solar et al.. The radiolabelling of the precursor was carried out as follows: 50 µL of 3 M NH4OAc buffer (pH 4) and 15 µL of 6 mM DOTAGA-cKNGRE aqueous solution were added to 50 µL [^205/206Bi]BiCl3 in 0.1 M HCl. The labelled complex was purified as described above. Then 10 µL of the purified [^205/206Bi]Bi-DOTAGA-cKNGRE in physiological saline (Salsol, TEVA, Debrecen, Hungary) was diluted with 0.49 mL water. It was then mixed with 0.5 mL n-octanol in a vial and shaken for 5 min. After centrifugation (6000 rpm, 5 min) the radioactivity of the sample from both the aqueous and n-octanol phase was measured with a Perkin Elmer Packard Cobra gamma counter. The LogP value was −2.59.

[3] = tested on: CD13pos. HT1080 fibrosarcoma; conditions: mouse, in vivo; cited from earlier work
Experimental: The tumour-targeting potential of [^213Bi]Bi-DOTAGA-cKNGRE was also evaluated in HT1080 tumour-bearing CB17 mice. […] Although the tumourous tracer activity decreased from 30 to 90 min post-administration, relatively higher accumulation of the HT1080 neoplasms compared with the other organs at 90 min time point yields better tumour-to-background (T/M) ratios and image contrast. The tumour-to-organs ratio is ...

[4] = in vivo; set-up: species or system CB17 SCID mice; conditions: CB17 SCID, mouse, 5 MBq, total radioactivity
Experimental: (§1) Experimental tumour induction was carried out under inhalation anaesthesia with a dedicated small animal anaesthesia device (Tec3 Isoflurane Vaporizer, Eickemeyer Veterinary Equipment, Luton, UK) applying 3% isoflurane (Forane, AbbVie, Chicago, IL, USA), 0.4 L/min O2 and 1.4 L/min N2O. This was followed by depilation and disinfection subcutaneous (s.c.) inoculation of 1.5 × 10^6 HT1080 (human fibrosarcoma) cells in 100 μL (1/3 part of Matrigel and 2/3 part of saline) into the left shoulder area of the CB17 SCID mice. For tumour verification the study mice underwent in vivo [^68Ga]Ga-DOTAGA-cKNGRE-based PET imaging 10 ± 1 days post tumour cell inoculation. To evaluate the organ distribution pattern of the ^213Bi-labelled therapeutic peptide compounds, ex vivo biodistribution studies were also executed 10 ± 1 days following the HT1080 cell transplantation at an average tumour volume of 155 ± 20 mm^3. Thereafter, tumour sizes based on the largest and the smallest tumour diameters were registered ((largest diameter × smallest diameter^2)/2). We used calliper measurements for tumour growth determination.
To assess the organ distribution of [^213Bi]Bi-DOTAGA-cKNGRE, ex vivo investigations were performed. The HT1080 fibrosarcoma-bearing experimental mice were anaesthetised with Forane (5%) and were sacrificed at 30 and 90 min post administration of the radiopharmaceutical. After autopsy, selected tissues, organs and the tumour itself were removed, weighed wet and their radioactivity was measured on a calibrated gamma counter (Perkin-Elmer Packard Cobra, Waltham, MA, USA). Then, the activity was decay corrected to the time of the injection. The percent of administered dose per gram of tissue (%ID/g) was determined for all samples from the counts per minute values (CPM). We presented the ex vivo data as mean %ID/g ± SD.

[5] = tested on: HT1080 fibrosarcoma; assay: Cancer treatment study: tumour volume; assay type: in vivo, CB17 SCID mice; conditions: approximately 5 MBq i.p. on days 7, 8, 10, 12, calliper, mean ± SD
Experimental: as §1
Seven days after HT1080 cell inoculation the tumour-bearing animals were randomly classified into two subgroups: treatment-naïve group (control, n = 8) and [^213Bi]Bi-DOTAGA-cKNGRE-treated group (treated, n = 8). Approximately 5 MBq [^213Bi]Bi-DOTAGA-cKNGRE was intraperitoneally (i.p.) administered to the experimental mice of the treated cohort on the 7th, 8th, 10th and 12th experimental days. The control mice were i.p. injected with 150 μL saline solution applying the same time regime.
On the 7th, 8th, 10th and 12th days of the investigation at an average tumour volume of 26.56 ± 2.39 mm^3 CB17 SCID mice bearing HT1080 fibrosarcoma in their left shoulder area were i.p. injected with approximately 5 MBq [^213Bi]Bi-DOTAGA- cKNGRE. The treatment-naïve study mice i.p. received 150 μL saline solution on the same experimental days. In a bid to assess the therapeutic efficacy of the investigated probe, body weights (BW, expressed in grams/g ± SD) and tumour volume (mm^3 ± SD) of the small animals were registered. Calliper measurements were applied to evaluate tumour development.

Work on `N=C(N)NCCC[C@@H]1NC(=O)CNC(=O)[C@H](CC(N)=O)NC(=O)[C@H](CCCCNC(=S)Nc2ccc(CNC(=O)CCC(C(=O)O)N3CCN(CC(=O)O)CCN(CC(=O)O)CCN(CC(=O)O)CC3)cc2)NC(=O)CC[C@@H](C(N)=O)NC1=O` (some centres unmarked) [[^205/206Bi]Bi-DOTAGA-cKNGRE] yielded a remaining at 1.5 h [1] greater than 95% and a LogP value [2] of −2.59.

For “^68Ga-NOTA-Gly3-CNGRC [[^68Ga]Ga-NOTA-G3-NGR, ^68Ga-tagged CD13-affine peptide derivate, literature PET tracer]”, the tumour accumulation [3] is listed as 4.96 ± 3.18 ID%/g.

For `N=C(N)NCCC[C@@H]1NC(=O)CNC(=O)[C@H](CC(N)=O)NC(=O)[C@H](CCCCNC(=S)Nc2ccc(CNC(=O)CCC(C(=O)O)N3CCN(CC(=O)O)CCN(CC(=O)O)CCN(CC(=O)O)CC3)cc2)NC(=O)CC[C@@H](C(N)=O)NC1=O` (some centres unmarked) [[^213Bi]Bi-DOTAGA-cKNGRE, metal not drawn], the tissue uptake at 0.5 h ([4]; HT1080 tumor) was 1.48 ± 0.18 %ID/g, the tissue uptake at 1.5 h ([4]; HT1080 tumor) was 0.8 ± 0.16 %ID/g and the tissue uptake at 0.5 h ([4]; blood) was 2.72 ± 0.22 %ID/g. It also gave a tissue uptake at 0.5 h ([4]; bone (femur)) of 0.69 ± 0.38 %ID/g, a tissue uptake at 0.5 h ([4]; fat) of 0.72 ± 0.05 %ID/g and a tissue uptake at 0.5 h ([4]; kidney) of 11.4 ± 1.41 %ID/g. It also gave a tissue uptake at 1.5 h ([4]; kidney) of 4.51 ± 1.21 %ID/g, a tissue uptake at 0.5 h ([4]; lung) of 2.09 ± 0.74 %ID/g and a tissue uptake at 1.5 h ([4]; muscle) of 0.06 ± 0.02 %ID/g. The tissue uptake at 0.5 h ([4]; pancreas) was 0.57 ± 0.18 %ID/g, the tissue uptake at 1.5 h ([4]; pancreas) was 0.08 ± 0.03 %ID/g and the tissue uptake at 0.5 h ([4]; stomach) was 0.73 ± 0.04 %ID/g. For the same molecule, the tumour volume ([5]; day 7) was 28.25 ± 2.67 mm^3, the tumour volume ([5]; day 8) was 23.33 ± 6.87 mm^3 and the tumour volume ([5]; day 9, p ≤ 0.01 vs untreated) was 35.36 ± 7.57 mm^3. It also gave a tumour volume ([5]; day 10, p ≤ 0.01 vs untreated) of 58.33 ± 14.36 mm^3 and a tumour volume ([5]; day 12, p ≤ 0.01 vs untreated) of 112.50 ± 18.42 mm^3.

— paper PMC9968005, “Therapeutic Performance Evaluation of ^213Bi-Labelled Aminopeptidase N (APN/CD13)-Affine NGR-Motif ([^213Bi]Bi-DOTAGA-cKNGRE) in Experimental Tumour Model: A Treasured Tailor for Oncology” (Pharmaceutics, 2023)
